Key:
[1] = target: R17^GAG2 (333KGRRK337 to 333DGEED337) (rodent herpesvirus Peru (RHVP)); assay: SPR
[2] = target: R17 266NAGAQ270 mutant (rodent herpesvirus Peru (RHVP)); assay: SPR

murine CCL2^K47N (from UniProt P10148 24-148) (ligand)
t1/2 [1]: 5.5 s

murine CCL2^L46R (from UniProt P10148 24-148) (ligand)
fold longer half life than wild type CCL2 [1]: 2 fold

murine CCL2^L46RK47N (from UniProt P10148 24-148) (ligand)
t1/2 [1]: > 900 s

B1: murine CCL3 (ligand)
chain: APYGADTPTACCFSYSRKIPRQFIVDYFETSSLCSQPGVIFLTKRNRQICADSKETWVQEYITDLELNA
fold faster kinetic off-rate than with wild type R17 [2]: > 100 fold
t1/2 [2]: 11 s

Reference: paper PMC7039123
